Assay results reported in US20190352623A1.

Biological target: HaloTag-NLpep86 fusion proteins (internal fusions)
Assay: luminescence complementation in transfected HeLa cells

NLpoly11S
efficiency of structural complementation relative to N- or C-terminal NLpep86 fusions to HaloTag: 1 to 40%
